From paper PMC3718800, “Structural and Functional Perturbation of Giardia lamblia Triosephosphate Isomerase by Modification of a Non-Catalytic, Non-Conserved Region” (PLoS ONE, 2013)

Substrate: O=C[C@H](O)COP(=O)(O)O
Experiment: Coupled alpha-glycerol-3-phosphate dehydrogenase assay following NADH decrease at 340 nm at 25°C in 100 mM triethanolamine/10 mM EDTA, pH 7.4, with 0.2 mM NADH and GAP varied from 0.3 to 3 mM, fitted to the Michaelis-Menten equation by non-linear regression.
Format: biochemical
Experimental: Glyceraldehyde 3-phosphate (GAP), buffers, salts and all the other analytical grade reagents were acquired from Sigma–Aldrich; α-glycerol-3-phosphate dehydrogenase (α-GDH) was from Roche, crystallization screen kits were obtained from Hampton Research. Restriction enzymes, DNA polymerase and T4 DNA ligase were purchased from New England BioLabs and Invitrogene. Oligonucleotide synthesis and DNA sequencing was performed at the Unidad de Biología Molecular, Instituto de Fisiología Celular, UNAM. Protein concentration was determined by the bicinchoninic acid method or by absorbance at 280 nm for pure GlTIM (ε280 = 26600 M^-1cm^-1). The TIM activity was determined at 25°C by a coupled assay, following the decrease in absorbance at 340 nm. The standard reaction mixture contained 100 mM triethanolamine/10 mM EDTA, pH 7.4 (TE buffer), 1 mM GAP, 0.2 mM NADH, and 0.9 units of α-GDH (20 μg/mL); the reaction was initiated by addition of 5 ng/mL of WT, C222V or C222M GlTIM, 10 ng/mL of C222N, 20 ng/mL of C222D or C222F, and 200 ng/mL of C222K. Kinetic, binding and stability data were analyzed by non-linear regression calculations with Origin software.
Determination of Km and Vmax was performed by fitting initial velocity data at GAP concentrations ranging from 0.3 to 3 mM to the Michaelis-Menten equation (v = Vmax•S/Km+S) by non-linear regression calculations. The kcat was derived from Vmax by considering a molecular mass for the monomer of 27.7 kDa. The Ki for 2-phosphoglycolate (2-PG) was calculated by global fit of initial velocity curves (GAP from 0.3 to 3 mM) obtained at different fixed concentrations of the inhibitor. Prior to fitting collectively the data to the simple competitive inhibition equation (v = Vmax•S/Km(1+I/Ki)+S), individual data were plotted as double reciprocal plots to confirm competitive inhibition.

B1: GlTIM (Giardia duodenalis) (protein)
chain: MPARRPFIGGNFKCNGSLDFIKSHVAAIAAHKIPDSVDVVIAPSAVHLSTAIAANTSKQLRIAAQNVYLEGNGAWTGETSVEMLQDMGLKHVIVGHSERRRIMGETDEQSAKKAKRALEKGMTVIFCVGETLDERKANRTMEVNIAQLEALGKELGESKMLWKEVVIAYEPVWSIGTGVVATPEQAEEVHVGLRKWFAEKVCAEGAQHIRIIYGGSANGSNCEKLGQCPNIDGFLVGGASLKPEFMTMIDILTKTRT
Km: 620 ± 220 µM
Vmax: 8050 µmol/min/mg
kcat: 7330 s⁻¹
